Assay results as given in article PMC5522039, “Non-invasive assessment of murine PD-L1 levels in syngeneic tumor models by nuclear imaging with nanobody tracers” (Oncotarget, 2017).

What was measured:
[1] = biological target: T1, His-tagged recombinant mouse PD-L1 protein (Mus musculus, UniProt Q9EP73)
[2] = biological target: T2, Mouse PD-L1 Fc-fusion protein (R&D Systems, 1019-B7) (Mus musculus, UniProt Q9EP73); experiment: SPR; Biacore T200, 25°C, HBS (0.01 M HEPES pH 7.4, 0.15 M NaCl, 3 mM EDTA, 0.005% Tween 20); mouse or human PD-L1 Fc-fusion protein amine-coupled on a CM5 chip (650-900 RU); Nb in crude periplasmic extract as analyte, its concentration estimated by CFCA; 9 dilutions, 120 s association, 160 s dissociation; 1-to-1 fit; affinity estimations; settings: one partner purified
T2 construct: programmed death-ligand 1 (PD-L1, B7-H1, CD274), mouse; also called moPD-L1; B7-H1; source: bought: R&D Systems (1019-B7)
T2 sequence (Q9EP73 19-239): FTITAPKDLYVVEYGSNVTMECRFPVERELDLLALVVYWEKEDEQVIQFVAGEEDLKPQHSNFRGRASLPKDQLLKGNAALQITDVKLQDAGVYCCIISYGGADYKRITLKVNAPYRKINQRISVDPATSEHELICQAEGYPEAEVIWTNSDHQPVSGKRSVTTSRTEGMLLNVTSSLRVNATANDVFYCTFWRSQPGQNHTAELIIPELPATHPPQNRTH

[3] = biological target: T3, Human PD-L1 Fc-fusion protein (R&D Systems, 156-B7) (Homo sapiens, UniProt Q9NZQ7); experiment: as above; settings: one partner purified
T3 construct: programmed death-ligand 1 (PD-L1, B7-H1, CD274), human; also called huPD-L1; B7-H1; source: bought: R&D Systems (156-B7)
T3 sequence (Q9NZQ7 19-238): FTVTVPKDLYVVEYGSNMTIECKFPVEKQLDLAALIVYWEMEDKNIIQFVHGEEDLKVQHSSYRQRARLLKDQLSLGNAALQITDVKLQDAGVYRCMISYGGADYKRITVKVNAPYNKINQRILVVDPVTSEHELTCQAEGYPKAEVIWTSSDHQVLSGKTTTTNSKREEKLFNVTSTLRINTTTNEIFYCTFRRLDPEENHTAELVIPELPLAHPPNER

[4] = biological target: T4, His-tagged recombinant human PD-L1 protein (Sino Biological #10084-H08H) (Homo sapiens, UniProt Q9NZQ7); experiment: SPR; Biacore T200, 25°C, HBS (0.01 M HEPES pH 7.4, 0.15 M NaCl, 3 mM EDTA, 0.005% Tween 20); His-tagged recombinant human PD-L1 amine-coupled on a CM5 chip (650-900 RU); purified Nb as analyte, 9 dilutions (0.15-1000 nM), 120 s association, 160 s dissociation; 1-to-1 fit; n = 1; settings: both partners purified
T4 construct: programmed death-ligand 1 (PD-L1, B7-H1, CD274), human; also called huPD-L1; source: bought: Sino Biological (#10084-H08H)
T4 sequence (Q9NZQ7 19-238): as above

[5] = biological target: T1, His-tagged recombinant mouse PD-L1 …; experiment: SPR; His-tagged mouse or human PD-L1 immobilised on a CM5 chip (EDC/NHS, between 650 and 900 RU); purified Nbs, 9 dilutions, 120 sec binding, 160 sec dissociation; Biacore T200, 25°C, HBS (0.01 M HEPES pH 7.4, 0.15 M NaCl, 3 mM EDTA, 0.005% Tween 20); 1-to-1 fit; n = 1; settings: both partners purified

T1 sequence (Q9EP73 19-239): as the sequence (Q9EP73 19-239) above

Binder	Kd [2] [nM]	Kd [3] [nM]	also measured
F1 (VHH) VHH: QVQLQESGGGLVQAGGSLRLSCTASRTTSSINIMAWYRQAPGKRRELVALSIRGGNTHYADSVKGRFTISGVHANNTVYLQMNSLKPEDTAVYYCNTGGYWGQGTQVTVSS			binding result [1]: binds
H1 (VHH) VHH: QVQLQESGGGLVQAGGSLRLSCAASGRTFSSRGMGWFRQAPGKEREFVAAISWGGGTTYYADSVKGRFTISRDNAKNTVYLQMNSLKPEDTAVYYCAAHTGFPHEYDYWGQGTQVTVSS			binding result [1]: binds
Nb E6 (HA-tagged, in periplasmic extract) (VHH, source: E. coli WK6 (pHEN4), crude periplasmic extract) VHH: QVQLQESGGGLVQAGGSLRLSCATSGSIFSIISMGWYRQAPGKQRELVALVFRGGSTVYADSVKGRFTISGDIAKSTVYLQMDSLKPEDTAVYYCNAKPIGTAQYWGQGTQVTVSS	6.9	217	
Nb C1 (HA-tagged, in periplasmic extract) (VHH, source: E. coli WK6 (pHEN4), crude periplasmic extract) VHH: QVQLQESGGGLVQTGGSLRLSCAASGSTVSSSMMAWWRQTPGNQRELVALVARGNNTNYVDSVKGRFTVSRDNAKNTMYLQMNSLKPEDTAVYYCRILSVNGIWYWGQGTQVTVSS	0.327	143	
Nb G1 (HA-tagged, in periplasmic extract) (VHH, source: E. coli WK6 (pHEN4), crude periplasmic extract) VHH: QVQLQESGGGLVQPGGSLRLSCAASGSISSFNFMGWYRQAPGKQRELVALSTNSGVTNVAGSVKGRFTISRDNAKTTVYLQMNSLKPEDTAVYYCRVGAMGNLYWGQGTQVTVSS	4.4	50	
Nb G2 (HA-tagged, in periplasmic extract) (VHH, source: E. coli WK6 (pHEN4), crude periplasmic extract) VHH: QVQLQESGGGLVQPGGSLRLSCVASGSISSFNFMGWYRQAPGKQRELVALSTNSGVTNVAGSVKGRFTISRDNAKTTVYLQMNSLKPEDTAVYYCRVGAMGNLYWGQGTQVTVSS	5.5	158	
Nb G3 (HA-tagged, in periplasmic extract) (VHH, source: E. coli WK6 (pHEN4), crude periplasmic extract) VHH: QVQLQESGGGLVQTGGSLRLSCAASGSISSFNFMGWYRQAPGKQRELVALSTNSGVTNVAGSVKGRFTISRDNAKTTVYLQMNSLKPEDTAVYYCRVGAMGNLYWGQGTQVTVSS	5	907	
Nb G4 (HA-tagged, in periplasmic extract) (VHH, source: E. coli WK6 (pHEN4), crude periplasmic extract) VHH: QVQLQESGGGLVQAGGSLRLSCAASGSISSFNFMGWYRQAPGKQRELVALSTNSGVTNVAGSVKGRFTISRDNAKTTVYLQMNSLKPEDTAVYYCRVGAMGNLYWGQGTQVTVSS	6.2	74	
Nb G5 (HA-tagged, in periplasmic extract) (VHH, source: E. coli WK6 (pHEN4), crude periplasmic extract) VHH: QVQLQESGGGLVQPGGSLRLSCAASGSFFRTYIVSWYRQAPGKRREAVAVMSNSGNTNYADSVKGRFTISRDNAVNTVYLQMNSLKPEDTAVYYCNLLKVTVPPANYWGQGTQVTVSS	3.9	16	
Nb G6 (HA-tagged, in periplasmic extract) (VHH, source: E. coli WK6 (pHEN4), crude periplasmic extract) VHH: QVQLQESGGGLVQPGESLRLSCVASGSFFRTYIVSWYRQAPGKRREAVAVMSNSGNTNYADSVKGRFTISRDNAVNTVYLQMNSLKPEDTAVYYCNLLKVTVPPANYWGQGTQVTVSS	5	21	
Nb G7 (HA-tagged, in periplasmic extract) (VHH, source: E. coli WK6 (pHEN4), crude periplasmic extract) VHH: QVQLQESGGGLVQSGGSLRLSCAASGSFFRTYIVSWYRQAPGKRREAVAVMSNSGNTNYADSVKGRFTISRDNAVNTVYLQMNSLKPEDTAVYYCNLLKVTVPPANYWGQGTQVTVSS	3.4	129	
Nb I1 (HA-tagged, in periplasmic extract) (VHH, source: E. coli WK6 (pHEN4), crude periplasmic extract) VHH: QVQLQESGGGLVQAGGSLRLSCAASGRTFRRYDMGWFRQAPGKEREFVAASTWSADDTYYAGSVKGRFTISRDNAKNTVYLQMNSLKPEDTAVYYCAAGETRKYGFRTTEGYYDSWGQGTQVTVSS	67	322	
Nb L1 (HA-tagged, in periplasmic extract) (VHH, source: E. coli WK6 (pHEN4), crude periplasmic extract) VHH: VQAGGSLRLSCAASGYRYCRYDMSWYRQAPGKEREFVSAIDSYGSPTYADTVLGRFTISRDNAKNTVYLQMNSLKAEDTAMYYCKIDSTGWSSRCGKTYWGQGTQVTVSS	15	34	
Nb M1 (HA-tagged, in periplasmic extract) (VHH, source: E. coli WK6 (pHEN4), crude periplasmic extract) VHH: VQAGDSLRLACTLFKYPTNNLCLAWFRQAPGKEREGVAALNTDGVGTYYAKSVEGRFTISQDKSKNEGYLQMDNLKPEDTAIYYCAADPTSRCNNYVQGRWWHEIGSRVWDWGQGTQVTVSS	13	17	
Nb C3 (HA-tagged, in periplasmic extract) (VHH, source: E. coli WK6 (pHEN4), crude periplasmic extract) VHH: QVQLQESGGGLVQTGGSLRLSCAASGSTVSSSMMAWWRQTPGNQRELVALVASGNNTNYVDSVKGRFTVSRDNAKNTMYLQMNSLKPEDTAVYYCRILSVNGIWYWGQGTQVTVSS	0.14	32	
Nb C3 (purified, C-terminal His6 tag) (VHH, source: E. coli (pHEN6), purified; not shown: His6, C-terminal, kept) VHH: QVQLQESGGGLVQTGGSLRLSCAASGSTVSSSMMAWWRQTPGNQRELVALVASGNNTNYVDSVKGRFTVSRDNAKNTMYLQMNSLKPEDTAVYYCRILSVNGIWYWGQGTQVTVSS			Kd [4]: 170 nM
Nb C7 (purified, C-terminal His6 tag) (VHH, source: E. coli (pHEN6), purified; not shown: His6, C-terminal, kept) VHH: QVQLQESGGGSVQAGESLTLSCTASGSSLSHKSVGWWRQTPGNQRELVALVASGNNTNYVDSVKGRFTVSRDNAKNTMYLQMNSLKPEDTAVYYCRILSVNGIWYWGQGTQVTVSS			Kd [4]: 74.5 nM
Nb E2 (purified, C-terminal His6 tag) (VHH, source: E. coli (pHEN6), purified; not shown: His6, C-terminal, kept) VHH: QVQLQESGGGLVQAGGSLRLSCATSGSIFSIISMGWYRQAPGKQRELVALVFRGGSTVYADSVKGRFTISGDIAKNTVYLQMDSLKPEDTAVYYCNVKSIGTAQYWGQGTQITVSS			Kd [4]: 55.1 nM
Nb E4 (purified, C-terminal His6 tag) (VHH, source: E. coli (pHEN6), purified; not shown: His6, C-terminal, kept) VHH: QVQLQESGGGLVHPGGSLRLSCATSGSIFSIISMGWYRQAPGKQRELVALVFRGGSTVYADSVKGRFTISGDIAKSTVYLQMDSLKPEDTAVYYCNAKPIGTAQYWGQGTQVTVSS			Kd [4]: 46.1 nM
Nb C4 (HA-tagged, in periplasmic extract) (VHH, source: E. coli WK6 (pHEN4), crude periplasmic extract) VHH: QVQLQESGGGLVQPGGSLRLSCAASGSTVSSSMMAWWRQTPGNQRELVALVASGNNTNYVDSVKGRFTVSRDNAKNTMYLQMNGLKPEDTAVYYCRLSVNGIWYWGQGTQVTVSS	0.187	342	
Nb C3 (VHH, Nanobody from a dromedary immunised with RAW264.7 cells; recloned into pHEN6 for the C-terminal His6 tag; also called anti-PD-L1 Nb C3; source: E. coli fermentation cultures, purified; not shown: His6, C-terminal, kept) VHH: QVQLQESGGGLVQTGGSLRLSCAASGSTVSSSMMAWWRQTPGNQRELVALVASGNNTNYVDSVKGRFTVSRDNAKNTMYLQMNSLKPEDTAVYYCRILSVNGIWYWGQGTQVTVSS			Kd [5]: 0.5 nM
Nb C7 (VHH, Nanobody from a dromedary immunised with RAW264.7 cells; recloned into pHEN6 for the C-terminal His6 tag; also called anti-PD-L1 Nb C7; source: E. coli fermentation cultures, purified; not shown: His6, C-terminal, kept) VHH: QVQLQESGGGSVQAGESLTLSCTASGSSLSHKSVGWWRQTPGNQRELVALVASGNNTNYVDSVKGRFTVSRDNAKNTMYLQMNSLKPEDTAVYYCRILSVNGIWYWGQGTQVTVSS			Kd [5]: 17 nM
Nb E2 (VHH, Nanobody from a dromedary immunised with RAW264.7 cells; recloned into pHEN6 for the C-terminal His6 tag; also called anti-PD-L1 Nb E2; source: E. coli fermentation cultures, purified; not shown: His6, C-terminal, kept) VHH: QVQLQESGGGLVQAGGSLRLSCATSGSIFSIISMGWYRQAPGKQRELVALVFRGGSTVYADSVKGRFTISGDIAKNTVYLQMDSLKPEDTAVYYCNVKSIGTAQYWGQGTQITVSS			Kd [5]: 2.1 nM
Nb E4 (VHH, Nanobody from a dromedary immunised with RAW264.7 cells; recloned into pHEN6 for the C-terminal His6 tag; also called anti-PD-L1 Nb E4; source: E. coli fermentation cultures, purified; not shown: His6, C-terminal, kept) VHH: QVQLQESGGGLVHPGGSLRLSCATSGSIFSIISMGWYRQAPGKQRELVALVFRGGSTVYADSVKGRFTISGDIAKSTVYLQMDSLKPEDTAVYYCNAKPIGTAQYWGQGTQVTVSS			Kd [5]: 4 nM
